# Measured values from patent publication US20200239537A1 (GOVERNORS OF THE UNIVERSITY OF ALBERTA, published 2020).
# *1 amine or outer side, *2 acyl side, *3 side chain or, on linkers, in order; H or OH if unused. Where no end group is shown, it is not given here. [ ]: non-standard residue; d: D form. The star is where a group is joined. azaArg = aza-arginine, alpha-carbon replaced by nitrogen, N=C(N)NCCCN(N[*:1])C(=O)[*:2]; Phe(4-Br) = N[C@@H](Cc1ccc(Br)cc1)C(=O)O; azaLeu = CC(C)CN(N[*:1])C(=O)[*:2]; Palmitoyl = CCCCCCCCCCCCCCCC(=O)*; αMeR = C[C@](N)(CCCNC(=N)N)C(=O)O; NMeL = CN[C@@H](CC(C)C)C(=O)O; αMeL = CC(C)C[C@](C)(N)C(=O)O; Nle = CCCC[C@H](N)C(=O)O; Aib = CC(C)(N)C(=O)O
# T1: recombinant human APJ receptor (Chem-5-APJ cells) (human, UniProt P35414 1-380)
# T1 sequence (looked up): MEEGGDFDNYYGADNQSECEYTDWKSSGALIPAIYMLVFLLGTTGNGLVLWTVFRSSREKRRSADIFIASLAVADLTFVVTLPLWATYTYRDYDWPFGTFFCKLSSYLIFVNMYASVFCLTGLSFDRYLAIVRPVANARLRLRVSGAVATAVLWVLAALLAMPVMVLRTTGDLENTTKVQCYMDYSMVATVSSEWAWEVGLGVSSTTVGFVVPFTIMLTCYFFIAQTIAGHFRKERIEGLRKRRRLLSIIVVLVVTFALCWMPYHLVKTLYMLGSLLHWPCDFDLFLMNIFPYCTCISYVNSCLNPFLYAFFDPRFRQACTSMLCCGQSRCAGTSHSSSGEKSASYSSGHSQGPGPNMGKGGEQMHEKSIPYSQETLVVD
# T2: wild-type rat apelin receptor tagged at its C-terminus with EGFP (rat, UniProt Q9JHG3 1-377)
# T2 construct: whole, on cells; Used as crude membrane preparations from CHO cells stably expressing the receptor; also called wild-type rat apelin receptor-EGFP; not shown: EGFP tag at the C-terminus
# T2 sequence (looked up): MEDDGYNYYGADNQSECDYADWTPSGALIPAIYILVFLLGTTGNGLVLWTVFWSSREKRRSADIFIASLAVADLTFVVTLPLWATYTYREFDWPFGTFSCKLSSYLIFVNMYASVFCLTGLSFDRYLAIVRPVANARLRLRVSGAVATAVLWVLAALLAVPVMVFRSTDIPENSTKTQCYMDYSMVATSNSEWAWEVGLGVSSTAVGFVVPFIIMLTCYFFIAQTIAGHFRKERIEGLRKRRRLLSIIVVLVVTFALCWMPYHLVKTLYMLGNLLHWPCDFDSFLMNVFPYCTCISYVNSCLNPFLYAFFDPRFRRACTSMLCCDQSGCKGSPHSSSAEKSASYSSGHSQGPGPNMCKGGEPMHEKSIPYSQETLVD
# B1: Apelin-NMe14A2 (55) (peptide)
# peptide: RQRPR[NMeL]SHKGP[Nle][Aib][Phe(4-Br)]
# B2: Apelin-14A2 (54) (peptide)
# peptide: RQRPRLSHKGP[Nle][Aib][Phe(4-Br)]
# B3: D-Leu9-apelin-17 A2 (9) (peptide)
# peptide: KFRRQRPR[dL]SHKGP[Nle][Aib][Phe(4-Br)]
# B4: azaArg8-apelin-17 A2 (17) (peptide)
# peptide: KFRRQRP[azaArg]LSHKGP[Nle][Aib][Phe(4-Br)]
# B5: apelin-17 A2 (5) (peptide)
# peptide: KFRRQRPRLSHKGP[Nle][Aib][Phe(4-Br)]
# notes: Synthetic ACE2-resistant analogue; also called parent peptide 5
# B6: α-MeArg8-apelin-17 A2 (13) (peptide)
# peptide: KFRRQRP[αMeR]LSHKGP[Nle][Aib][Phe(4-Br)]
# notes: also called α-MeArc8-apelin-17 A2
# B7: pyr-1-apelin-13 A2 (4) (peptide)
# peptide: XRPRLSHKGPXXX
# modifications: pGlu at 1; Nle at 11; Aib at 12; paraBrPhe at 13
# notes: Synthetic ACE2-resistant analogue; also called parent peptide 4; none (A2)
# B8: α-MeLeu9-apelin-17 A2 (15) (peptide)
# peptide: KFRRQRPR[αMeL]SHKGP[Nle][Aib][Phe(4-Br)]
# B9: apelin-17 (2) (peptide)
# peptide: KFRRQRPRLSHKGPMPF
# notes: Native isoform; apelin residues 61-77; also called native apelin-17; native isoform 2
# B10: azaLeu9 apelin-17 A2 peptide (19) (peptide)
# peptide: KFRRQRPR[azaLeu]SHKGP[Nle][Aib][Phe(4-Br)]
# B11: N-MeLeu9-apelin-17 A2 (11) (peptide)
# peptide: KFRRQRPR[NMeL]SHKGP[Nle][Aib][Phe(4-Br)]
# notes: also called Apelin-NMe17A2; NMeLeu-17A2
# B12: PEG-NMe17A2 (59) (peptide)
# peptide: KFRRQRPR[NMeL]SHKGP[Nle][Aib][Phe(4-Br)]
# modifications: not fully specified (N-terminus); numbers in words are those of the source; also: N-terminal PEG from Fmoc-(PEG)6 propionic acid, Fmoc removal not given here
# B13: PALM-17A2 (56) (peptide)
# peptide: Palmitoyl-KFRRQRPRLSHKGP[Nle][Aib][Phe(4-Br)]
# B14: PALM-NMe17A2 (58) (peptide)
# peptide: Palmitoyl-KFRRQRPR[NMeL]SHKGP[Nle][Aib][Phe(4-Br)]
# B15: PEG-17A2 (57) (peptide)
# peptide: KFRRQRPRLSHKGP[Nle][Aib][Phe(4-Br)]
# modifications: not fully specified (N-terminus); also: Fmoc removal from PEG not given here
# Target: T1, recombinant human APJ receptor …
# Assay: cell-based or functional assay
row,Binder,"EC50 of Ca2+ mobilization, fold against the 17-mers [fold]"
1,B1,~200
2,B2,~200

# Target: T2, wild-type rat apelin receptor tagged at …
# Assay: displacement of 0.2 nM [125I]-pyr-1-apelin-13; membranes of CHO cells expressing rat apelin receptor-EGFP
# Method: This experiment evaluated the ability of peptides of the present embodiments to bind to the wild-type rat apelin receptor, in order to examine the impact of synthetic modification within the critical RPRL motif of the apelin peptides.
# The reaction was stopped by adding 4 mL of cold binding buffer, filtered on Whatman GF/C filters and washed with 5 mL of cold binding buffer. Radioactivity was then counted using a Wizard 1470 Wallac gamma counter (Perkin Elmer, Turku, Finland). Binding experiment data were analyzed with GraphPad Prism.
Binder,Ki [nM],times less potent than native 2 [fold],factor of weaker affinity compared to 1 [fold]
B3,0.14,~3,
B4,0.14,~3,
B5,0.19,,
B6,0.13,~3,
B7,2,,6
B8,0.18,~3,
B9,0.053,,
B10,0.15,~3,
B11,0.45,~3,

# Target: T1, recombinant human APJ receptor …
# Assay: cell-based or functional assay
# Remark: another data set of the same source
row,Binder,"EC50 (nM), Ca2+ mobilization assay [nM]"
1,B5,4
2,B1,176
3,B12,2.5
4,B13,2.6
5,B14,11.3
6,B2,568
7,B15,6.3
